Data on two molecules can be found in US20160058829A1, “ANTI-FIBROTIC PEPTIDES AND THEIR USE IN METHODS FOR TREATING DISEASES AND DISORDERS CHARACTERIZED BY FIBROSIS” (Thrasos Innovation, Inc., priority 2011, published 2016).

One assay has as its target T1, Alk-3 (Homo sapiens, UniProt P36894).
T1 construct: Highly purified extra-cellular domain (ECD) of Alk-3 or Alk-6 (expressed as a fusion protein with Fc domain) served as a receptor
Put plainly: Radio-ligand (125I-BMP7) receptor binding assay, Alk-3 ECD. An excerpt: FIG. 45A-FIG. 45G Pharmacokinetics of THR-123. FIG. 45A. BMP7 structure figure with the residue weights resulting from the analysis mapped on to it. FIG. 45B, FIG. 45C. Radio-ligand receptor binding assays specific for individual type I receptors, Alk-3 (FIG. 45B) and Alk-6 (FIG. 45C). Highly purified extra-cellular domain (ECD) of Alk-3 or Alk-6 (expressed as a fusion protein with Fc domain) served as a receptor. In each assay purified receptor was immobilized on each well and peptide analog or unlabeled BMP7 was added, followed by ^125I-labeled BMP7. Radiolabeled BMP7 complex was counted in an auto-gamma counter. Results were expressed as the mean±s.e.m. […] Concentration of THR-123 in systemic circulation of Wistar rats following iv injection of THR-123 (^125I-Tyr) via the tail vein determined by total radioactivity measurement. […] Six hours after intravenous administration of ^125I labeled-THR-123 in rats at a dose of 6.25 mg/kg-body weight, tissues were harvested and analyzed by automatic gamma well counter. […] Radioactivity of orally administrated ^125I labeled-THR-123 at a dose of 5 mg/kg body weight was localized in the kidney between 1 and 6 hours after administration and peaked at around 3 hours.
First, specific affinity of the extra cellular domains (ECD) of the several type I receptors of BMPs to THR-123 was analyzed. […]

A further assay deals with p38 MAPK. Put plainly: p38 MAPK phosphorylation in HK-2 cells. Type of assay: cell-based, human. An excerpt: The significance of p38 MAPK is that this protein is implicated as a non-Smad-dependent pathway for TGF-β-dependent EMT. Other non-Smad-dependent pathways implicated in TGF-β-dependent EMT include RhoA, Ras, PI3 kinase, Notch, and Wnt signaling pathways.
It has been shown that regulation p38 MAPK activity by pro-inflammatory factors has implications in fibrosis.

Assay [1] deals with NP-1 cells. Put plainly: TGF-β-induced apoptosis in NP-1 cells (Annexin V). Format: cell-based. Conditions: TGF-β 3 ng/ml 24 h; BMP-7 1 μg/ml, THR-123 10 μM. On the procedure:
FIG. 48A-FIG. 48D THR-123 inhibits TGF-β-induced apoptosis in NP-1 cells. NP-1 cells are incubated with TGF-β (3 ng/ml) for 24 h in the presence of indicated molecules. Apoptosis was analyzed by Annexin V labeling (Roche). Representative merged picture (Green: Annexin V and bright field image) of cells treated with TGF-β only (FIG. 48A), TGF-β+BMP-7 (1 μg/ml) (FIG. 48B), TGF-β+THR-123 (10 μM) (FIG. 48C) and TGF-β+ctrl peptide (FIG. 48D).

Assay [2] has as its system NP-1 cells. Put plainly: Hypoxia-induced apoptosis in NP-1 cells (Annexin V). Format: cell-based. Conditions: 2.5% O2 24 h; BMP-7 1 μg/ml, THR-123 10 μM. On the procedure: FIG. 49A-FIG. 49D THR-123 inhibits Hypoxia-induced apoptosis in NP-1 cells. NP-1 cells are incubated with hypoxia (2.5% O2) for 24 h in the presence of indicated molecules. Apoptosis was analyzed by Annexin V labeling (Roche). Representative merged picture (Green: Annexin V and bright field image) of cells treated with hypoxia only (FIG. 49A), hypoxia+BMP-7 (1 μg/ml) FIG. 49(B), hypoxia+THR-123 (10 μM) (FIG. 49C) and hypoxia+ctrl peptide (FIG. 49D).

For assay [3], the system named is NP-1 cells. Put plainly: TGF-β-induced EMT in NP-1 cells (inhibition and reversal). Conditions: for TGF-β-induced E-cadherin loss (co-incubation): 48 h; for TGF-β-induced E-cadherin loss (co-incubation) / TGF-β-induced EMT, cell shape (co-incubation): BMP-7 1 μg/ml, THR-123 10 μM; for E-cadherin expression in TGF-β-incubated cells (reversal) / percentage of cells that regained epithelial characteristics (length to width ratio): NP-1 cells; for TGF-β-induced EMT, cell shape (co-incubation): TGF-β 3 ng/ml with EGF 48 h; for percentage of cells that regained epithelial characteristics (length to width ratio): reversal experiment. Format: cell-based. On the procedure:
FIG. 51A-FIG. 51J THR-123 inhibits epithelial-mesenchymal transition in NP-1 cells. FIG. 51A-FIG. 51E: Bright field image. […] F-J. E-cadherin immunofluorescence labeling. NP-1 cells expressed E-cadherin in cell border (FIG. 51F). […] Representative results are shown.
FIG. 53A-FIG. 53L Reversal of EMT by THR-123 in NP-1 cells A-E: Inverted microscopic pictures. FIG. 53A. Basal polygonal epithelial nature of NP1 cells. FIG. 53B. […] FIG. 53C, FIG. 53D. BMP 7 (1 μg/ml) (FIG. 53C) or THR-123 (10 μM) (FIG. 53D) were added to mesenchymal like cells induced by TGF-β and EGF for the additional 48 hrs. […] FIG. 53E. […] FIG. 53F. Ratio of length to width was calculated in reversal experiment. Five representative pictures of the cells in different areas of the well, were taken by using the inverted microscope. A total of 100 cells were analyzed (20 cells per picture). […] The data are presented mean+s.e.m. in the graph. FIG. 53G. […] Mean plus one SD was estimated as epithelial characteristics and the percentage of epithelial characteristics in each experimental setting were estimated. 18% of BMP7 and 24% of THR-123 treated NP-1 cells regained epithelial characteristics. FIG. 53H-FIG. 53L. Immunofluorescence picture for E-cadherin. TGF-β incubation decreased E-cadherin levels when compare to untreated cells (FIG. 53H, FIG. 53I). […] Representative results from three independent experiments are shown.
EMT was induced in NP1 cells or MCT cells by incubation with 3 ng/ml recombinant human […] for 48 h. When EMT occurred, the medium was removed and replaced with THR-123 (10 μM) or recombinant human BMP7 (100 ng/ml) in DMEM. After 48 h, the cells were characterized by immunocytochemistry using primary monoclonal antibodies to E-cadherin ([…]) and rhodamine-conjugated secondary antibodies (Jackson Immunoresearch, West Grove, Pa.) as previously described. The staining was visualized by fluorescence microscopy and documented representative pictures using Spot advanced software (Carl Zeiss, Oberkochen, Germany). Also protein and total RNA were harvested at the end of experiment. For the morphometric analysis for EMT, length/width of cells in bright field pictures are measured by image J software. The ratio of length/width was calculated.

“Also recorded” adds a separate entry of the source. Like-named read-outs stand apart in the source and are kept apart here. Positions of bridges follow the written chain, without caps; N, C: chain ends.

T1 sequence (P36894 24-152 limits assumed, species assumed): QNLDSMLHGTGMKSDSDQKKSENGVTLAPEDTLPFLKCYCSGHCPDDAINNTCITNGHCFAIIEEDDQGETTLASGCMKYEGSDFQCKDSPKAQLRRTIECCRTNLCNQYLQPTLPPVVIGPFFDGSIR

In the case of “(H)-CYFDDSSNVLCKKYRS-(OH) (H-CYFDDSSNVLCKKYRS-OH; disulfide 1-11; SMILES CC(C)C[C@@H]1NC(=O)[C@H](C(C)C)NC(=O)[C@H](CC(N)=O)NC(=O)[C@H](CO)NC(=O)[C@H](CO)NC(=O)[C@H](CC(=O)O)NC(=O)[C@H](CC(=O)O)NC(=O)[C@H](Cc2ccccc2)NC(=O)[C@H](Cc2ccc(O)cc2)NC(=O)[C@@H](N)CSSC[C@@H](C(=O)N[C@@H](CCCCN)C(=O)N[C@@H](CCCCN)C(=O)N[C@@H](Cc2ccc(O)cc2)C(=O)N[C@@H](CCCNC(=N)N)C(=O)N[C@@H](CO)C(=O)O)NC1=O) [SEQ ID NO: 1]”, the “binding to ALK3 (competition with 125I-BMP7)” value with Alk-3 (listed as THR-123) is reported as “competes with BMP7; also recorded: binds”. Further, in the assay on p38 MAPK (HK-2 cells), the “TNF alpha induced p38 phosphorylation” value is given as “effectively inhibited” and the “basal p38 phosphorylation” value was “effectively inhibited”. Also, the “potency on p38 phosphorylation relative to SB 203580” value with p38 MAPK (THR-123 1 uM versus specific inhibitor 10 uM) is given as “as potent as 10 uM of the specific inhibitor”. The TGF-β-induced apoptosis result with NP-1 cells [1] is “decreased apoptosis”. For the same molecule, the hypoxia-induced apoptosis entry in the assay with NP-1 cells [2] was “decreased apoptosis”. Also, in the assay on NP-1 cells [3], the “TGF-β-induced E-cadherin loss (co-incubation)” value is recorded as “prevents E-cadherin loss”; the “E-cadherin expression in TGF-β-incubated cells (reversal)” value was “reversed E-cadherin expression”; the “TGF-β-induced EMT, cell shape (co-incubation)” value was “prevents these phenotypic changes”; the “percentage of cells that regained epithelial characteristics (length to width ratio)” value stood at 24%.

B1: BMP-7: bone morphogenetic protein-7; recombinant human BMP7, positive control (protein)
chain: STGSKQRSQNRSKTPKNQEALRMANVAENSSSDQRQACKKHELYVSFRDLGWQDWIIAPEGYAAYYCEGECAFPLNSYMNATNHAIVQTLVHFINPETVPKPCCAPTQLNAISVLYFDDSSNVILKKYRNMVVRACGCH
In the case of B1, the “binding to ALK3 (competition with 125I-BMP7)” value in the assay with Alk-3 is on record as “binds”. The “basal p38 phosphorylation” value in the assay with p38 MAPK (HK-2 cells) was “inhibited p38 phosphorylation”. In addition, the TGF-β-induced apoptosis entry with NP-1 cells [1] is given as “decreased apoptosis”. Moreover, the hypoxia-induced apoptosis entry with NP-1 cells [2] is “decreased apoptosis”. In the assay on NP-1 cells [3], the “TGF-β-induced E-cadherin loss (co-incubation)” value is recorded as “prevents E-cadherin loss”; the “E-cadherin expression in TGF-β-incubated cells (reversal)” value is reported as “reversed E-cadherin expression”; the “TGF-β-induced EMT, cell shape (co-incubation)” value is on record as “prevents these phenotypic changes”; the “percentage of cells that regained epithelial characteristics (length to width ratio)” value was 18%.
